According to patent US20240400671A1 (LANIER BIOTHERAPEUTICS, published 2024):

T1: recombinant human IL-25 (R&D Systems) (human, UniProt Q9H293 33-177)
T1 sequence (looked up): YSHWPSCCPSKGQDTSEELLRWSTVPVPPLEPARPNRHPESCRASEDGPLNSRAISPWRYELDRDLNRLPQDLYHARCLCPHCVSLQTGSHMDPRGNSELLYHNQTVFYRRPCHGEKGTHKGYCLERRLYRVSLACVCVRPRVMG


Target: T1, recombinant human IL-25 (R&D Systems)
Test: cell-based or functional assay

Row | IC50 | Binder
1 | 0.22 µg/mL | hABM125.34 (antibody, V domains shown) VH: QVTLKESGPTLVKPTQTLTLTCTFSGFSLSTSGMGVGWIRQPPGKALEWLAHIWWDDVKRYNPSLKSRLTITKDTSGSQVVLTMTNMDPVDTATYYCARTLPHFHDYWGQGTTLTVSS VL: DIQMTQSPSTLSASVGDRVTITCRASSSVSYMYWYQQKPGKAPKPLIYRTSNLASGVPSRFSGSGSGTEYTLTISSLQPDDFATYYCKQYHSYPPTWTFGGGTKLEIKR
2 | 0.18 µg/mL | ABM125 (Chimera) (antibody, V domains shown, N-glycosylation site in heavy chain CDR1 created by S29N, confirmed biophysically) VH: QVTLKVSGPGILQPSQTLSLTCSFSGFSLNTSGMGVGWIRQPSGKGLEWLAHIWWDDVKRYNPALKSRLTISKDTSGSQVFLKIASVDTADTATYYCARTLPHFFDYWGQGTTLTVSS VL: DIQMTQSPAIMSASPGEKVTISCRASSSVSYMYWYQQKSGSSPKPWIYRTSNLASGVPARFSGSGSGTSYSLTISSMEAEDAATYYCKQYHSYPPTWTFGGGTKLEIKR
